This is an account of results in patent US20060240015A1 (Kyowa Kirin, published 2006).

The target in assay [1] is T1, human insulin-like growth factor-I (human, UniProt P05019 49-118).
T1 construct: mature; In the ELISAs it was coated as a conjugate with methylated BSA; in Biacore it was amine-coupled to a CM-5 chip; also called hIGF-I; IGF-I
Nature of the assay: SPR (Biacore 2000). (SPR reads the build-up and loss of mass on a sensor chip optically.)

Assay [2] addresses T2, human insulin-like growth factor-II (human, UniProt P01344 25-91).
T2 construct: also called hIGF-II; IGF-II
In words: SPR (Biacore 2000).

Assay [3] addresses T3, partial peptide of hIGF-I corresponding to 1st to 18th (human).
T3 construct: also called p1-18
T3 peptide: GPETLSGAELVDALQFVC
Nature of the assay: competitive ELISA, methylated BSA-hIGF-I coated, peptide in solution. For orientation: An ELISA detects its analyte on a solid surface through an enzyme-linked reagent.

For assay [4], the target named is T4, partial peptide of hIGF-I corresponding to 14th to 30th (human).
T4 construct: also called p14-30
T4 peptide: CLQFVAGDRGFYFNKPTG
Described as above.

Assay [5] addresses T5, partial peptide of hIGF-I corresponding to 24th to 35th (human).
T5 construct: also called p24-35
T5 peptide: CYFNKPTGYGSSS
The assay is described as above.

Assay [6] has as its target T6, partial peptide of hIGF-I corresponding to 29th to 41st (human).
T6 construct: also called p29-41
T6 peptide: CTGYGSSSRRAPQT
Described as above.

Assay [7] addresses T7, partial peptide of hIGF-I corresponding to 36th to 47th (human).
T7 construct: also called p36-47
T7 peptide: RRAPQTGIVDEC
The assay is described as above.

Assay [8] deals with T8, partial peptide of hIGF-I corresponding to 41st to 56th (human).
T8 construct: also called p41-56
T8 peptide: CTGIVDEAAFRSADLRR
The description is as above.

Assay [9] addresses T9, partial peptide of hIGF-I corresponding to 52nd to 70th (human).
T9 construct: also called p52-70
T9 peptide: CDLRRLEMYAAPLKPAKSA
Described as above.

Assay [10] concerns the target T10, partial peptide of hIGF-I corresponding to 61st to 70th (human).
T10 construct: also called p61-70
T10 peptide: CAPLKPAKSA
Described as above.

Assay [11] has as its target T11, partial peptide of hIGF-I corresponding to 41st to 56th having an inner Cys (human).
T11 construct: also called p41-56C; p41-56c
T11 peptide: CTGIVDECCFRSCDLRR
Described as above.

The target of assay [12] is T1, human insulin-like growth factor-I. Nature of the assay: SPR (Biacore 2000), hIGF-I amine-coupled on CM-5, antibody as analyte, 25 C. Here is the method:
(§1) In order to analyze the binding activity of the anti-hIGF rat monoclonal KM1468 to an antigen hIGF-I or hIGF-II, the binding affinities of the anti-hIGF rat monoclonal KM1468, a commercially available anti-hIGF-I antibody sm1.2 and a commercially available anti-hIGF-II antibody S1F2 to hIGF-I and hIGF-II were assayed in the following manner using the biosensor Biacore 2000 (manufactured by Biacore) utilizing surface plasmon resonance. For the diluting samples and as the reaction buffers in measurement, HBS-EP (10 mM HEPES, 150 mM NaCl, 3 mM EDTA, 0.005% Tween 20, pH 7.4) (manufactured by Biacore) was used.
(§2) Using an amine coupling (manufactured by Biacore), hIGF-I or hIGF-II were immobilized at 36.0 pg/mm² or 41.7 pg/mm², respectively, on sensor tip CM-5 (manufactured by Biacore). After 3 types of the antibodies which were diluted in 6 steps in 2-fold serial dilutions starting from 20 μg/ml as analytes, were added at a flow rate of 20 μl/minute for 2 minutes, the dissociation of the analytes was subsequently observed over 5 minutes. The reaction was carried out at 25° C. Based on the reaction curves at various concentrations, association constant Kass and dissociation constant Kdiss were calculated, to calculate the binding constant KA (M⁻¹) of these various antibodies. The binding constant KA is calculated by KA=Kass/Kdiss.

For assay [13], the target named is T2, human insulin-like growth factor-II. In words: SPR (Biacore 2000), hIGF-II amine-coupled on CM-5, antibody as analyte, 25 C. On the procedure:
as §1, §2

Assay [14] concerns the target T12, human insulin (human, UniProt P01308 25-54; P01308 90-110).
T12 construct: Bought
Nature of the assay: competitive ELISA, methylated BSA-hIGF-I or methylated BSA-hIGF-II coated, insulin in solution. The text has this:
Cross reactivity of the purified anti-hIGF rat antibody KM1468 with hIGF-II and human insulin was examined by the competitive ELISA shown below. As the antigens, hIGF-I (manufactured by Pepro Tech), hIGF-II (manufactured by Pepro Tech) and human insulin (manufactured Wako Pure Chemical Industries) were used.
The methylated BSA-hIGF-I antigen prepared in Reference Example 1(1) or a methylated BSA-hIGF-II antigen prepared in the same manner as in Reference Example 1(1) was immobilized on a plate in accordance with the method shown in Reference Example 1(4), at a concentration of 0.1 μg/ml in the case of the methylated BSA-hIGF-I antigen, or at a concentration of 1.0 μg/ml in the case of the methylated BSA-hIGF-II antigen, KM1468 diluted to 0.6 μg/ml was dispensed at 25 μl/well, and then each of 4-fold serial dilutions of hIGF-I, hIGF-II or human insulin prepared by starting from 20 μg/ml was dispensed at 25 μl/well, mixed and left at room temperature for 1 hour. After the reaction and subsequent washing with Tween-PBS, 1000-fold diluted peroxidase-labeled rabbit anti-rat Ig antibody (manufactured by DAKO) was added at 50 μl/well as the secondary antibody in the case of the anti-hIGF antibody KM1468. […] The results are represented by relative values (%) wherein OD415 when an antibody was added alone was defined as 100.

T2 sequence (P01344 25-91 limits assumed): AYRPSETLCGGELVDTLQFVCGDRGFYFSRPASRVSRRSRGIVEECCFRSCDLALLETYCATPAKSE
T1 sequence (P05019 49-118): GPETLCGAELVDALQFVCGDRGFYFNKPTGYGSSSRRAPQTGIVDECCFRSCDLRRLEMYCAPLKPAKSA
T12 sequence (P01308 25-54 limits assumed, chain 1 of 2): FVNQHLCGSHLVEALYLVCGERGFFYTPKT
T12 sequence (P01308 90-110 limits assumed, chain 2 of 2): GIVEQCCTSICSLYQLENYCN

B1: anti-hIGF rat monoclonal antibody KM1468 (antibody, rat IgG2b, V domains shown)
VH: EVHLVESGGGLVQPGRSLKLSCAASGFTFSNYYMTWVRQAPTKGLEWVAYISSGGGSTYYRDSVKGRFTISRDNAKSTLYLQMDSLRSEDTATYYCTTEDYGYWFAYWGQGTLVTVSS
VL: EIVLTQSPTTMAASPGEKVTITCRASSSVSYMHWFQQKSGTSPKPWIYGTSKLASGVPDRFSGSGSGTSYSLTISSMEAEDAATYYCLQRSSYPPTFGAGTKLELK
notes: Rat IgG2b, kappa; Hybridoma FERM BP-7978; also called anti-hIGF antibody KM1468; anti-hIGF rat antibody KM1468
In the case of B1, the “KA relative to S1F2 (fold)” value in assay [1] is roughly 18 fold; in assay [2] it was roughly 3.6 fold. Besides, the “KA relative to sm1.2 (fold)” value in assay [1] was roughly 42 fold; in assay [2], roughly 120 fold. The binding result in assay [3], in [4], in assay [5], in [6], in assay [7] and in [8] was “no binding (tested: 3-fold serial dilutions from 50 µg/mL)” in each case. In addition, the binding result is given as “no binding (tested: 3-fold serial dilutions from 50 µg/mL)” in assay [9], “no binding (tested: 3-fold serial dilutions from 50 µg/mL)” in assay [10], “no binding (tested: 3-fold serial dilutions from 50 µg/mL)” in assay [11] and “no binding” in [14]. The figures for the Ka in assay [12] and in assay [13] were 7.86e+09 M⁻¹ and 8.63e+09 M⁻¹, respectively.
